From US20240029824A1 (University of Washington, published 2024)
Values belong to the binder of their own block, whether it stands above or below them.

What was measured:
DHT01-4arm-01 chain C [1] = molecular target: T1, DHT01-4arm-01 chain C; experiment: bicistronic expression, SAXS, negative stain EM; A2B2 ring
T1 construct: also called DHT01-4arm-02 chain C; C2-DHT01-01 chain B
T1 chain: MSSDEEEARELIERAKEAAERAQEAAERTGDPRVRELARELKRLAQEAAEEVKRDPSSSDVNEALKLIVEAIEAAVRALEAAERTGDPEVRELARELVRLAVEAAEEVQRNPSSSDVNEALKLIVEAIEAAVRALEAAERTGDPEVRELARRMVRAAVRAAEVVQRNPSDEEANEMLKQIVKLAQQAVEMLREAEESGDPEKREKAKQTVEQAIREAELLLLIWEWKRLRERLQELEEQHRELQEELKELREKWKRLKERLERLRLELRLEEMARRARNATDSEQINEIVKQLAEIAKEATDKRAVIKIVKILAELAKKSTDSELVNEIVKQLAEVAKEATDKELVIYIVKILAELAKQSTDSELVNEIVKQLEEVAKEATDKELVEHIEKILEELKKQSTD

[2] = molecular target: T2, DHT05_3arm_A62/B71/C62 chain C; experiment: SEC and SAXS; chains of one ABC heterotrimer
T2 chain: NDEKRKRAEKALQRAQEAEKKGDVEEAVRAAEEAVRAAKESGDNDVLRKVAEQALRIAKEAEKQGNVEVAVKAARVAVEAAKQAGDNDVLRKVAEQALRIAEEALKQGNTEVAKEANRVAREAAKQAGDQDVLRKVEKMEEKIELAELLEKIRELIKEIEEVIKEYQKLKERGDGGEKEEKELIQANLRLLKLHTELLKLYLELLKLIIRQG

[3] = molecular target: T3, DHT03 chain C (SEQ ID NO: 59); experiment: chains mixed and annealed, SEC, negative stain EM; A3B3C3 ring
T3 chain: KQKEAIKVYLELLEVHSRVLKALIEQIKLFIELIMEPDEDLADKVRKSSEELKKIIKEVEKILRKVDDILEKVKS

[4] = molecular target: T3, DHT03 chain C (SEQ ID NO: 59); experiment: X-ray crystal structure, 3.35 A
Protocol: Purified DHT03_2arm_A21/B21/C (long) protein at a concentration of 41 mg/mL was used to conduct sitting drop, vapor-diffusion crystallization trials using the JCSG Core I-IV screens (NeXtal Biotechnologies). Crystals of DHT03_2arm_A21/B21/C long grew from drops consisting of 100 nL protein plus 100 nL of a reservoir solution consisting of 2M (NH4)2SO4, 0.1M sodium acetate pH4.6 at 18° C., and were cryoprotected by supplementing the reservoir solution with 2.2M sodium malonate pH5. Native diffraction data was collected at APS beamline APS-23-ID-B, indexed to P1 and reduced using XDS⁴⁸. The structure was phased by molecular replacement using Phaser™. The chain A of a set of ˜49 lowest energy predicted models from Rosetta™ were used as search models. Several of these models gave clear solutions. Chain B and Chain C were fitted manually in Coot™ and rigid body refinement by Phenix™. The following model building and refinement were done by Coot™ and Phenix™.

[5] = molecular target: T3, DHT03 chain C (SEQ ID NO: 59); experiment: chains mixed and annealed, SEC, negative stain EM; A4B4C4 ring
[6] = molecular target: T4, DHT03_3arm_A21/B21/C82 chain C; experiment: three components purified separately, mixed equimolar, heat annealed, SEC, negative stain EM
T4 construct: also called chain C DHR82 fusion; chain C of C3-DHT03-01-DHR82 and C4-DHT03-01-DHR82
T4 chain: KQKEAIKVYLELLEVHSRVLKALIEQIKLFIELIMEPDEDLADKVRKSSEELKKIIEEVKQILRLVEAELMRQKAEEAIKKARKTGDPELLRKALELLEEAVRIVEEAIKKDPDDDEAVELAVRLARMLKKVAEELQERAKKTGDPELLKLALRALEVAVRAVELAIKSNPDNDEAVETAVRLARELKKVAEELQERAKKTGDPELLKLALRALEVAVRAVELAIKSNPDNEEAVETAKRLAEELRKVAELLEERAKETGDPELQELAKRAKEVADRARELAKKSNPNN
Excerpt: As is evident from the images in FIGS. 4c and 4d, the cyclic structures retain one of the original heterotrimer helical hairpins in each corner; these short, outward facing protein chains provide fusion points for further elaboration of higher order symmetric assemblies. To evaluate the potential for building up larger nanostructures using the rings as hubs, and explore the modularity of the designed building blocks, we replaced the original outward facing chain C helical hairpin with the chain C DHR82 fusion (as it was the largest 4-repeat DHR) from FIG. 3d, row 8. This was done for two designs (C3-DHT03-01 and C4-DHT03-01), with chain C replaced by fusion C82 through expressing and purifying the three components separately, mixing them in equal molar quantities, and reconstituting using heat annealing.
An AKTA PURE FPLC system was used. Heterotrimer bases, arm extensions, coiled coil C2 rings, and all constructs mentioned in SI were passed through a Cytvia Superdex S200 Increase 10/300 GL column, while C3/C4 rings made from DHT03 were passed through a Cytvia Superdex S6 Increase 10/300 GL column. The mobile phase was TBS (25 mM Tris-HCl pH 8.0, 100 mM NaCl or 25 mM Tris-HCl pH 8.0, 150 mM NaCl). Samples ran at a flow rate of 0.75 ml/min and fractions were collected at 0.5 ml.

DHT01-4arm-01 chain C [7] = molecular target: T1, DHT01-4arm-01 chain C; experiment: co-expression, pull-downs, SEC, native MS, SAXS; chains of one ABC heterotrimer

binding result (DHT01-4arm-01 chain C [1]): binds
B1: C2-DHT01-02 chain B (designed binder)
chain: DEEEKLRESLEEQKKRVKEIEREHEEIREALKRLQQSVLRQAVRLAKLGDDSEMIQRIVEDLARQAMEATDDREVEKIEKALDELAKNSTDEELKKVIKVAKTLVRVAKLVKEAEELLRQAKEKGSEEDLEKALRTAEEAAREAKKVLEEAEKAQIAEAALLAVELVVRVAELLLRIAKESGSEEALERALRVAEEAARLAKRVLELAEKQGDPEVALRAVELVVRVAELLLRIAKESGSSEALTRAWRVAIEAFQLAVRVLKLAQKQNDSEVARRATELMKRVAELMERIARESGSSAFKAAAEALEAAARTNDKEVVDLARELARLAIEALEEVERNSKSSDVNRALKLILRAIKAAVQLLEHAEKSGDPEVRELARELVRRLVEAAEEVQRNPSDEQKNTQLRRLIAKAEVWLLNEEFKEAEKRFRKLQEETKKALEEVEELNQRFEEALEEVERIKRRQK
notes: two copies in the A2B2 ring

binding result [2]: binds
B2: DHT05_3arm_A62/B71/C62 chain B (designed binder)
chain: SEVEKRLLEIHRQVAESHRILVEVHEALIEALRGNSEEAKEKLKELVKKLEKIIRQEELLLQLLEALVKALQAKKEGDPELVLEAAKDALRVAEQAAKEGDKEMFKQAAELALWLAKQLVEVASKEGDPELVLEAAKVALRVAELAAKNGDKEVFKKAAESALEVAKRLVEVASKEGDPELVEEAAKVAEEVRKLAKKQGDEEVYEKARETAREVKEELKRVREEK

binding result [3]: binds
B3: C3-DHT03-02 chain B (designed binder)
chain: TWQWVLINISEEARQLIEKAVRAISKKEGTEVHFEKDDGVLHIRVKNLHEKRAREIHKVAKLILEVAAAERIVRERPGSNLAKKALEIILRAAEELAKADVDAALEAAVRAAEKVVREQPGSNLAKKALEIILRAAEELAKLPDPEALKEAVKAAEKVVREQPNSELAKKAREIIKRAAEELAKSPDKEAIQEAATALAILIELILSNTELAREAKELATEARKATDSEAAKVVFLALFIVVQLPDTELAKEALELAKEAVKSTDSEALKVVELALEIVQQLPDTELAKEALKLAKEAVKSTDSEALKVVYLALRIVQQLPDTELAREALELAKEAVKSTDSEQLEVVRLALEIVQLAPDTRLARAALKLAKEAVKSTDQEELKKVKAILRVASEVLKLEEEAKKSQEEVERLKQEVEKASKAGLDHEGDSRIFKKIHDVVTKQIKVILRLIAVYAELVAIIG
notes: three copies in the A3B3C3 ring

binding result [4]: binds
B4: DHT03_2arm_A21/B21/C long chain B (designed binder)
chain: SEKEKVEELAQRIREQLPDTELAREAQELADEARKSDDSEALKVVYLALRIVQQLPDTELAREALELAKEAVKSTDSEALKVVELALKIVQQLPDTELAKEALELAKEAVKSTDSEALKVVELALEIVQQLPDTELAKEALKLAKEAVKSTDSEALKVVYLALRIVQQLPDTELAREALELAKEAVKSTDSEQLEVVRLALEIVQLAPDTRLARAALKLAKEAVKSTDQEELKKVKAILRVASEVLKLEEEAKKSQEEVERLKQEVEKASKAGLDHEGDSRIFKKIHDVVTKQIKVILRLIAVYAELVAIIG

binding result (DHT01-4arm-01 chain C [1]): binds
B5: C2-DHT01-01 chain A (designed binder)
chain: DEEEKLRESLEEQKKRVKEIEREHEEIREALKRLQQSVLRQAVRLAKLGDDSEMIRRIVKDLMQQAIEATDEREVEKIKKAAEELSKNSTDEDLKKQIKAVQELVKAVETVREAKKQGDPKKVLKAAEIAMEVATWAAERNDEMIFKLAAKMAKEVAERLKEVAKKENDSALELAAEAIKAAVEALEAALRTGDPRVRELAKELVRLAKEAAEEATRDSKDSDKNEALKLIVEAIKAAVRALEAAERTGDPEVRELARELVRLAVEAAEEVLRNPSSSDVNRALKLIVRAIEAAVQLLEHAEKSGDPEVRELARELVRRLVEAAEEVQRNPSDEQKNTQLRRLIAKAEVWLLNEEFKEAEKRFRKLQEETKKALEEVEELNQRFEEALEEVERIKRRQK
notes: two copies in the A2B2 ring; ring designs kept a C-terminal His-tag in frame

binding result (DHT01-4arm-01 chain C [1]): binds
B6: C2-DHT01-03 chain A (designed binder)
chain: MGDEEEKLRESLEEQKKRVKEIEREHEEIREALKRLQQSVLRQAVRLAKLGDDSRMIASIIRDLVKQALRATDEREQKKIKKALEELAQNATDEALKLLIEAAKSLLRAAEASERGDEEEFRKAAEKALELAKRLVEIAKKQSLPEFVLAAAEIALAVAELAAKNNDSEVLEKALRSAAEVAQRLLEVAEKENNQELVEEAAKILKRALEIVEKAAKKLKERNDQSSDVNRALTLIRRAQEAADQLLEHARKSGDPEVWELAIRLVARLVEAAAKVAANMSDEQQNTQLRRLIAKAEVWLLNEEFKEAEKRFRKLQEETKKALEEVEELNQRFEEALEEVERIKRRQKGGSGWSHPQFEK
notes: two copies in the A2B2 ring

binding result [5]: binds
binding result [6]: binds
B7: C4-DHT03-01 chain B (designed binder)
chain: MGTTNFHLINGSEEARQLIQKAVEAISKKEGTEVHFEKSDGTLEIRVKNLHPRQEDLIKKFIEALLLALVAKGELEQAEKEGDAEVALRAVEKVVRVAELLLRLAKEAGSEEALKAALEIAEQAARLAARVFTLAVKQNDSDVAKRAVELIKRVAELLKRIAKESGSEEAKERAEKVEKAAEVAEIAARILDQLSNTELAKEALKLASEALKSDIKEALEVVRLALRIVQQLPDTELAREALELAKEAVKSTDSEQLEVVRLALEIVQLAPDTRLARAALKLAKEAVKSTDQEELKKVKAILRVASEVLKLEEEAKKSQEEVERLKQEVEKASKAGLDHEGDSRIFKKIHDVVTKQIKVILRLIAVYAELVAIIG
notes: four copies in the A4B4C4 ring; also called C4-DHT03-01-DHR82 chain B

binding result [5]: binds
B8: C4-DHT03-02 chain B (designed binder)
chain: MGTTNFHLINGSEEARQIIEKIVEEVARKAGTEVHFEKSDGTLEIRVKNLHEELERRIKKAIEAALAAQIAKKLAEQIERQLSNTELAKEAKKLATEAEKARDSEAVQVVLLALEIVQQLPDTELAKEALELAEEAVKSTDSEALKVVKLALEIVQQLPDTELAREALELAKEAVKSTDSEALKVVYLALRIVQQLPDTELARLALELAKKAVEMTAQEVLEIARAALKAAQAFPNTELAELMLRLAEVAARVMKELERNDEEIKKSDELDDESLLEDIVELLKEIIKLWKILVEVSDVMLKLIS
notes: four copies in the A4B4C4 ring

binding result (DHT01-4arm-01 chain C [7]): binds
B9: DHT01-4arm-01 chain B (designed binder)
chain: SEQERREKAKEEVRELNEEFKEAEKRFRKLQEETKKALEEVEELNQRFQEALTEVAAKKLALEISRVIKTLKESGSSYEEIAEIVARIVAEIVEALKRSGASEKDIATIVAAIISAVIQTLKESGSSYEVIAEIVARIVAEIVEALKRSGTSEDEIAEIVARVISEVIRTLKESGSSYEVIKEIVQRIVEEIVEALKRSGTSEDEINEIVRRVKSEVERTLKESGSS
notes: Strep-tag II was added to the N-terminus of chain B of DHT01 arms

binding result [3]: binds
binding result [6]: binds
B10: C3-DHT03-01 chain B (designed binder)
chain: NTHFIVVHGGEEARQLAETAVREISKKEGTEVRFEKKDGLLSIEVKNLSEELQRLIQELLQLLVRLAALLEAVRAVEEAIKRNPDNDEAVETAVRLARELKKVAELLQELAKKAGVPAILRGALLALEVAVRAVELAIKSNPDNDEAVETAVRLAVVKLALEIVQQLPDTELAREALELAKEAVKSTDSEALKVVYLALRIVQQLPDTELARLALELAKKAVEMTAQEVLEIARAALKAAQAFPNTELAELMLRLAEVAARVMKELERNDEEIKKSDELDDESLLEDIVELLKEIIKLWKILVEVSDVMLKLIS
notes: three copies in the A3B3C3 ring; also called C3-DHT03-01-DHR82 chain B
